Test results: patent publication US20260167699A1 (Chugai, published 2026)

B1: GpH7-A5/GpH7-B3 variant I332_10E/GpL16-k0 (antibody, human IgG1, kappa)
heavy 1: not shown
heavy 2: not shown
light: DIVMTQSPLSLPVTPGEPASISCQASESLVHSNRNTYLHWYLQKPGQSPQLLIYKVSNRFSGVPDRFSGSGSGTDFTLKISRVEAEDVGVYYCSQNTHVPPTFGQGTKVEIERTVAAPSVFIFPPSDEQLKSGTASVVCLLNNFYPREAKVQWKVDNALQSGNSQESVTEQDSKDSTYSLSSTLTLSKADYEKHKVYACEVTHQGLSSPVTKSFNRGEC
notes: copies: 1 + 1 + 2
B2: GpH7-A5/GpH7-B3 variant I332_13S/GpL16-k0 (antibody, human IgG1, kappa)
heavy 1: not shown
heavy 2: not shown
light: B1 light
notes: copies: 1 + 1 + 2
B3: GpH7-A5/GpH7-B3 variant I336_01G/GpL16-k0 (antibody, human IgG1, kappa)
heavy 1: not shown
heavy 2: not shown
light: B1 light
notes: copies: 1 + 1 + 2
B4: GpH7-A5/GpH7-B3 variant I336_10E/GpL16-k0 (antibody, human IgG1, kappa)
heavy 1: not shown
heavy 2: not shown
light: B1 light
notes: copies: 1 + 1 + 2
B5: GpH7-A5/GpH7-B3 variant I336_13S/GpL16-k0 (antibody, human IgG1, kappa)
heavy 1: not shown
heavy 2: not shown
light: B1 light
notes: copies: 1 + 1 + 2
B6: GpH7-A5/GpH7-B3 variant I336_04F/GpL16-k0 (antibody, human IgG1, kappa)
heavy 1: not shown
heavy 2: not shown
light: B1 light
notes: copies: 1 + 1 + 2
B7: GpH7-A5/GpH7-B3 variant I336_03V/GpL16-k0 (antibody, human IgG1, kappa)
heavy 1: not shown
heavy 2: not shown
light: B1 light
notes: copies: 1 + 1 + 2
B8: GpH7-A5/GpH7-B3 variant I332_12R/GpL16-k0 (antibody, human IgG1, kappa)
heavy 1: not shown
heavy 2: not shown
light: B1 light
notes: copies: 1 + 1 + 2
B9: GpH7-A5/GpH7-B3 variant I332_16H/GpL16-k0 (antibody, human IgG1, kappa)
heavy 1: not shown
heavy 2: not shown
light: B1 light
notes: copies: 1 + 1 + 2
B10: GpH7-A5/GpH7-B3 variant I336_15Y/GpL16-k0 (antibody, human IgG1, kappa)
heavy 1: not shown
heavy 2: not shown
light: B1 light
notes: copies: 1 + 1 + 2
B11: GpH7-A5/GpH7-B3 variant I332_14T/GpL16-k0 (antibody, human IgG1, kappa)
heavy 1: not shown
heavy 2: not shown
light: B1 light
notes: copies: 1 + 1 + 2
B12: GpH7-A5/GpH7-B3 variant I332_19Q/GpL16-k0 (antibody, human IgG1, kappa)
heavy 1: not shown
heavy 2: not shown
light: B1 light
notes: copies: 1 + 1 + 2
B13: GpH7-A5/GpH7-B3 variant I336_08L/GpL16-k0 (antibody, human IgG1, kappa)
heavy 1: not shown
heavy 2: not shown
light: B1 light
notes: copies: 1 + 1 + 2
B14: GpH7-A5/GpH7-B3 variant I332_18N/GpL16-k0 (antibody, human IgG1, kappa)
heavy 1: not shown
heavy 2: not shown
light: B1 light
notes: copies: 1 + 1 + 2
B15: GpH7-A5/GpH7-B3 variant I336_14T/GpL16-k0 (antibody, human IgG1, kappa)
heavy 1: not shown
heavy 2: not shown
light: B1 light
notes: copies: 1 + 1 + 2
B16: GpH7-A5/GpH7-B3 variant I332_20W/GpL16-k0 (antibody, human IgG1, kappa)
heavy 1: not shown
heavy 2: not shown
light: B1 light
notes: copies: 1 + 1 + 2
B17: GpH7-A5/GpH7-B3 variant I336_02A/GpL16-k0 (antibody, human IgG1, kappa)
heavy 1: not shown
heavy 2: not shown
light: B1 light
notes: copies: 1 + 1 + 2
B18: GpH7-A5/GpH7-B3 variant I336_11K/GpL16-k0 (antibody, human IgG1, kappa)
heavy 1: not shown
heavy 2: not shown
light: B1 light
notes: copies: 1 + 1 + 2
B19: GpH7-A5/GpH7-B3 variant I332_15Y/GpL16-k0 (antibody, human IgG1, kappa)
heavy 1: not shown
heavy 2: not shown
light: B1 light
notes: copies: 1 + 1 + 2
B20: GpH7-A5/GpH7-B3 variant I336_16H/GpL16-k0 (antibody, human IgG1, kappa)
heavy 1: not shown
heavy 2: not shown
light: B1 light
notes: copies: 1 + 1 + 2
B21: GpH7-A5/GpH7-B3 variant I336_09D/GpL16-k0 (antibody, human IgG1, kappa)
heavy 1: not shown
heavy 2: not shown
light: B1 light
notes: copies: 1 + 1 + 2
B22: GpH7-A5/GpH7-B3 variant I336_06M/GpL16-k0 (antibody, human IgG1, kappa)
heavy 1: not shown
heavy 2: not shown
light: B1 light
notes: printed 1336_06M, read as I336_06M; also called 1336_06M; copies: 1 + 1 + 2
B23: GpH7-A5/GpH7-B3 variant I336_12R/GpL16-k0 (antibody, human IgG1, kappa)
heavy 1: not shown
heavy 2: not shown
light: B1 light
notes: copies: 1 + 1 + 2

target: T1, FcγRIIIa (human, UniProt P08637 17-208); assay: SPR (Biacore);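 note: antibody variants captured on an SPR sensor chip, with FcγRIIIa passed over as analyte in HBS-EP+ buffer at 25 °C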
T1 construct: extracellular domain; also called 3a; FcγRIIIa extracellular domain
T1 sequence (P08637 other isoform, or with tags, fused parts or gaps): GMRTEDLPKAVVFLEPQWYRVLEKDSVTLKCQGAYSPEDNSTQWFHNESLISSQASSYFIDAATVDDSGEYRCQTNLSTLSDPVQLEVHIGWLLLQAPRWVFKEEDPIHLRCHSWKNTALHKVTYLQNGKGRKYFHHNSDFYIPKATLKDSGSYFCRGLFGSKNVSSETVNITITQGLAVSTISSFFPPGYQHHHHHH

| He/Con 3a | Binder |
| --- | --- |
| 213 % of GpH7-A5/GpH7-B3/GpL16-k0 | B1 |
| 95.6 % of GpH7-A5/GpH7-B3/GpL16-k0 | B2 |
| 94.6 % of GpH7-A5/GpH7-B3/GpL16-k0 | B3 |
| 114 % of GpH7-A5/GpH7-B3/GpL16-k0 | B4 |
| 97.1 % of GpH7-A5/GpH7-B3/GpL16-k0 | B5 |
| 93.2 % of GpH7-A5/GpH7-B3/GpL16-k0 | B6 |
| 107 % of GpH7-A5/GpH7-B3/GpL16-k0 | B7 |
| 78.1 % of GpH7-A5/GpH7-B3/GpL16-k0 | B8 |
| 89 % of GpH7-A5/GpH7-B3/GpL16-k0 | B9 |
| 83.4 % of GpH7-A5/GpH7-B3/GpL16-k0 | B10 |
| 110 % of GpH7-A5/GpH7-B3/GpL16-k0 | B11 |
| 101 % of GpH7-A5/GpH7-B3/GpL16-k0 | B12 |
| 102 % of GpH7-A5/GpH7-B3/GpL16-k0 | B13 |
| 84.9 % of GpH7-A5/GpH7-B3/GpL16-k0 | B14 |
| 103 % of GpH7-A5/GpH7-B3/GpL16-k0 | B15 |
| 116 % of GpH7-A5/GpH7-B3/GpL16-k0 | B16 |
| 106 % of GpH7-A5/GpH7-B3/GpL16-k0 | B17 |
| 94.4 % of GpH7-A5/GpH7-B3/GpL16-k0 | B18 |
| 92.4 % of GpH7-A5/GpH7-B3/GpL16-k0 | B19 |
| 92.8 % of GpH7-A5/GpH7-B3/GpL16-k0 | B20 |
| 102 % of GpH7-A5/GpH7-B3/GpL16-k0 | B21 |
| 104 % of GpH7-A5/GpH7-B3/GpL16-k0 | B22 |
| 88.8 % of GpH7-A5/GpH7-B3/GpL16-k0 | B23 |
